Test results: the nanobody polyreactivity screen of Harvey et al. (2022)

Test: yeast display, Sf9 membrane polyspecificity reagent, FACS + sequencing; frameworks hold sequencing errors
Procedure, shortened: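 Synthetic nanobody libraries on Saccharomyces cerevisiae BJ5465 were galactose-induced for 36–48 hours, stained 1 hour at 4 °C with 10% biotinylated, detergent-solubilized Sf9 membrane reagent and enriched on streptavidin microbeads. FACS then separated cells into low and high (top ~1%) gates by anti-HA (expression) and streptavidin (reagent binding) fluorescence. Genes were colony-PCR amplified, MiSeq 2 × 250 sequenced and CDR-length filtered. A clone's polyreactivity label is that of its gate of origin.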

Row | Sequence | polyreactivity (PSR sort gate)
1 | QDQLEESGGGLSQAGGSLRLSCAASGINFPSYTMGWSRQATGKERELVAAIDSGGSTYYADSVKGRFTISRDNAKNSVYLQMNSLIPEDTAVYYCAAEPDTYWYTYDYWGQGTQVSVSS | low polyreactivity
2 | QDQLEESGGGLVQAGGSLRLSCAASGSTCVKYARGWYRPAPGKERELVAAISTRGGTTYYADSVKGRFTISRDNAKNTVYLQMNSLKPEDTAVYYCATGSYSRGVAYGYWGQGTQVTVSS | high polyreactivity
3 | QDQLEESGGGLVQAGGSLRLSCAASGYTISPNDMGWYRQAPGKERELVAAITSSVGSTYYADSVKGRFSFSRDNAKNTVYLQMKSLKPEDTAVYYYWGQGTQVTVSS | low polyreactivity
4 | QDQLEESGGGLVQAGGSLRLSCASSGRIFAGYAMGWYRQAPGKERELVAAISGSGGSTYYADSVKGRFTISRDNAKNTVYLQMNSLKPEDTAVFYCNAGKTSRFQYDYWGQGTQVTVSS | high polyreactivity
5 | QDQLEESGGGLVQAGGSLRLSCSASGSIFRRNAMGWYRQAPGKERELVAGITRSTGDTYYADSVKGRFTISRDNAKNTVYLQMNSMKPEDTAVYYCAACGSYYRDDYWGQGTQVTVSS | low polyreactivity
6 | QDQLGDSGGCLVQAGGSLRLSCAASGITFKNYAMVWYRQAPGKEREIVAAISASGGRTYYADSVKGRFTISRDNAKNTVYFPMNSLIPEDTAVYYCNAVYIGSRSRYEYDYWGQGSQVTVSS | high polyreactivity
7 | QDQLGDSGGGLLQAGGSLRLSCAASGQIYFDNMGWYRQAPGKEREMVAAISSSGASTSYADSVKGRFTISRDNAKNTVYLQIYSLNPEDTAVYYCAADSYPAYLGFVGFDYWGQGTQVTVSS | low polyreactivity
8 | QDQLGESGGGLVQAGGRLRLSCAASGFIIWNYGMGWYRQPPGKERELVAAISSGGTITKYADSVKGRFTISRDNAKNTVYLQMNSLKPEDTAVYYWAARWGVRAGYATFDYWGQGTQVTVSS | high polyreactivity
9 | QDQLGESGGGLVQAGGSLRLSGAASGSTFSRNAMGWYRQAPGKERELVAAISRSGGSTHYADSVKGRFTISRDNAKNTVYLQMNSQKPEDTAVYYCAARVPRGDLPGYHYAYYYWGQGTQVTVSS | high polyreactivity
10 | QDQLGESGGGVVQAGGSLRLSCAAYGRTLHYYAMGWYRQAPGKERELVAGIRDSGGSTYYADSVKGRFTISRDNEMNTVYFLMNSLKPEDTAVYYCAARSHRRLMYYWGQGTQVNVSS | high polyreactivity
11 | QDQLVDSGGGLVQAGGSLRLSCAASGRIIFYYTMGSYSQAPGKESELVAAINSTGSTNYADSVKGRFTISRDNAKNTVYLQMNSLKPEDTAVYYCNAGTRYIFLYPPFLGAAFDYWGQGTQVTVSS | low polyreactivity
12 | QDQLVDSGGGLVQAGGSLRLSCAASGSIFPIYAMGGYRQAPGKERELVAAIDWGDGSTSYADSVKGRFTISRDNAKNTVYLQMNSLKPEDTAVYYCAARSVFDLVYYNLIFDYWGQGTQVTVSS | high polyreactivity
13 | QDQLVDSGGGLVQAGGSLRLSSSDSGSIFRYYTMGWYRQSPGKERELVARISSSRSTNYADSVKGRFTISRDNAKNTVYLQMNSLKPEDTEVYYCAARAFSWAGFYYWGQGTQVTVSS | low polyreactivity
14 | QDQLVDSGGRLVQGGGSLRLSCAASGYIFIWYDMGWYRQAPGKERELVAAISGSGGYTYYADSVKGRFTISRDNAKNTVFLQMNSLKPEDTAVYYCAAYVARGNSEVIAMDYWGQGTQVTVSS | low polyreactivity
15 | QDQLVDSGVCLVQARGSLRLSCAASGRIFDAYTMGWYRQAPGKESELVASITGRDGSTYYADSVKGRFTISRDNAKNTVYLQMNSLKPEDTAVDYCNAKYSSFGIRYNYWGQGTQVTVSS | high polyreactivity
16 | QDQLVESAAGLVQAGGSLRLSCAASGSTFATYAMGWYRKAPGKERELVAAITASGGRTFYADSVKGRFTLSRDNAKNTVYLQMNSLKPEDPAVYYCAKRGDYVPYTFDYWGQGTQVTVSS | high polyreactivity
17 | QDQLVESAGGIVQAGGRLRLSCAASGTLYINVMGWYRQSPGKERELVAAISSNGARTYYADSVKGRFTISRDNAKNTVYLQMNSLKPEDTAVYYCDASFYFYSLYGYWGQGTQVTVSS | high polyreactivity
18 | QDQLVESAVGLVQAGGSLRLSCDASGSTFDFYDIGWYRQAPGKERELVATIRWSGDTTYYADSVKGRFTISRDNAKNTVYLQMTRLKPEDTAVYYCNADYFGQESWWMDYWGQGTQVTVSS | low polyreactivity
19 | QDQLVESCGALLQAGGSLRLSCAASGITIDTYFMGRYRQAPGKETELLAAISNSDGSTYYADSVKGRFTISRDNAKHTVYLPMNSLKPEDTAVYYCNAQSYYSWHLRYDYWGQGTQVTVSS | high polyreactivity
20 | QDQLVESCGGLVQAGGSLRLSCAASGHIFIYYAMGWYRQAPWKERELVAVISGSGGRTYYADSVKGRFTISRDYAKNTVSLQMNSLKPEDTAVYYCAAAVRYYPHYDSWGQGTQVNVSS | low polyreactivity
21 | QDQLVESGGALGQAGGSLRLSCAASGSIFFYYAMGCYRQAPGKEREFVAHITSSEASTHYADSVKGRFTISRDTAKNTVYLQMNSLIPEDTAVYYCAADRYPGHRERDFWGQGSQVTVSS | low polyreactivity
22 | QDQLVESGGALVQAGGSLRLSCAASGFTFYKNAMGWYRQAPGKERELVAAISADGGRTYYADSVKGRFTISRDNAKNTVYLQMNSLKPEDTAVYYCAADKRLFRRPKTYDLWGQGTQVTVSS | high polyreactivity

Row | Sequence | polyreactivity (PSR sort gate)
23 | QDQLVESGGALVQAGGSLRLSCAPSGGTFWIYAMGWYRQAPGKERELVAGITTSGATTYYADSVKGRFTISRDNAKNTVYLQMNSLKPVDTAVYYCAADEYYRYEYWGHGTQVTVSS | low polyreactivity
24 | QDQLVESGGCLVQAGGSLRLSCAASGSIFTKYAMGWYRQAPGKERELVAAIDVNGGSTRYADSVKGRFTISRDNAKNTVYLQMNSLKPEDTAVYYCAKDYTASYYPQGLYDYWGQGTQVTVSS | low polyreactivity
25 | QDQLVESGGCLVQAGGSLRLSCAASGSTFRSNAMGWYRQAPGKERELVAAISRGGSTNYADSVKGRFTISRDNAKNTVYLQMNSLKTEDTAVYYCNADWDYRDFYDITYDYWGQGTQVTVSS | low polyreactivity
26 | QDQLVESGGCLVQAGGSLRLSCADSGSNFWYYAMVWYRQAPGKERELVAAITSAGSTYYADSVKGRFTISRDNAKITVYLQINSLKPEDTAVYYCAKVKAWSEYYYWGQGTQVTVSS | low polyreactivity
27 | QDQLVESGGGIVQAGGSLRLSCAASGFTFHNNVMGWNRQAPGKERELVATISKSGGSTYYADSVKGRFTISRDNAKNTVYLQMNSLKPEDTAVYYCAGRYRDYGRYGYWGQGTQVTVSS | high polyreactivity
28 | QDQLVESGGGIVQAGGSLRLSCAASGSTFDFNAMGWYRQAPGKERELVASISWETGGTYADSVKGRFTISRDNGKNTVYLQMKSLNPEDTAVYYCAARPDYFIFEYWGQGTQVTVSS | low polyreactivity
29 | QDQLVESGGGLDQAGGSLRLICAASGRIFIYYAMGWYRQAPGKETELVAAISSTGTTNYADSVKGRFTISRDNAKNTVYLQMTSLKPEDTAVYFCAARVRTATRRFTSYSWGQGTQVTVSS | high polyreactivity
30 | QDQLVESGGGLDQAGGSLRLSCAASGFTFIRYAMGWYRQAPGKERELVATITRSGGSTYYADSVKGRFTISRDHAKNTVYLQMNSLKPEDTAVYYCAKRGTLGSYYYWGQGTQVTVSS | high polyreactivity
31 | QDQLVESGGGLDQAGGSLRLSCAASGRIFALNAMGWYRQAPGKERELVATIRWRGGSTYYADSVKGRFTISRDYAKNTVYLQMNSLKPEDTAVYYCASYSGNRRTYDYWGQGTQVTVSS | high polyreactivity
32 | QDQLVESGGGLDQAGGSLRLSCAASGRIFDVYAMGWYRQAPGKERELVAAISWSGSSTYYADSVKGRFTISRDNAKNTVYLQMNSLKPEDTAVYSCATVLRVTRVDYWGQGTQVTVSS | high polyreactivity
33 | QDQLVESGGGLDQEGGSLRLSCAASGIFSYEAMGWNRQAPGKERELVATISRRGSSTYYADSVKGRFTISRDNAKNTVYLQMNSLKPEDSAVYYCAAVRYISPAFLPASSYELGYWGQGSQVTVSS | low polyreactivity
34 | QDQLVESGGGLVHAGGSHRFSCAASGFTFGAYAMGWSRQAPGKERELVATITNSGRTYYADSVKGRFTISRDNAKNTVYLQMNSLKPEDTAVYYCAAQPDGQAMEHWGQGTQVTVSS | low polyreactivity
35 | QDQLVESGGGLVQAAGSLRLTCAASGLTFAYYAMGWNRQAPGKERELVAAISWNGGRTYYADSVKGRFTISRDNAKNTVYLQMNSLKPEDTAVDYCAAEVTSSFYWGQGSQVTVSS | high polyreactivity
36 | QDQLVESGGGLVQAGASRRLRCAASGSIFGRNTMGWYRQAPGKESELVAAISSGGRTYYADSVKGRFTISRDNAKYTVFLQMNSLKPEDTAVYYCAAALRRRRADFDYWGQGTQVTVSS | high polyreactivity
37 | QDQLVESGGGLVQAGCSLRLSCAASGSTFRTYAMGWYRQAPGKERDLVAAIRRGGSTKYADSVKGRFTISRDNAKYTVYLQINSLIPEDTELYYCAAVTYVPRSTNGISLYDYWGQGTQVTVSS | high polyreactivity
38 | QDQLVESGGGLVQAGGILSLICAASGITFHSNDMGWYRQAPGKERELVAAISWSDDTTYYADSVKGRFTISRDNAKNTVYLQMNSLKPEDTAVYYCAAEFFGSYGYYEYDYWGQGSQVTVSS | high polyreactivity
39 | QDQLVESGGGLVQAGGRLRLSCAASGSIFLRNAIGWYRQAPGKERDLVAAISKSGGSTYYADSVKGRFTISRDNAKNTVYLQMNSLKPEDTAVYYCAARTTYLYGMYYWGQGTQVTVSS | low polyreactivity
40 | QDQLVESGGGLVQAGGRLRLSCAASVRIFWVNAMGWYRQAPGKERELVAAISWTSGSTYYADSVKGRFTISRDHANNTVYLMMNSLKPEDTAVYYCNKVQSGEYDYWGQGTQVTVSS | high polyreactivity
41 | QDQLVESGGGLVQAGGSHRLSCAASGSTFGVNDMGWYRQAPGKERELVARITGGGSTYYADSVKGRFTISRDNAKNTVYLQMNSLKPEDTAVYYCNAAFWAPQATGYYYWGQGTQVTVSS | low polyreactivity
42 | QDQLVESGGGLVQAGGSLRISSAASGRTYKSNAMGWYRQAPGKERELVATISRGGGSTYYADSVKGRFTISRDNAKNTVYLQMNSLKPEDTAVYYCAKGSNSYLRYHYTYPYDYWGQGTQVTVSS | high polyreactivity
43 | QDQLVESGGGLVQAGGSLRLICAASGLIFGFYAMGWYRQAPGKERELVAAINTGGITYYADSVKGRFTISRDNAKYTVYLQMNSLKPEDTAVYYCNKDSHISTAYDYWGQGTQVTVSS | low polyreactivity
